Patent EP4786492A1

Key:
[1] = target: DLL3 endogenously expressed on NCI-H82 cells (UniProt Q9NYJ7); assay: FACS on NCI-H82 cells; antibody 100 nM
[2] = target: mouse DLL3 on CHO-K1-mDLL3 cells (mouse) (UniProt O88516); assay: FACS, CHO-K1-mDLL3 cells, 100 nM antibody
[3] = target: human DLL3 protein expressed on CHO-K1 recombinant cells (human DLL3 extracellular segment fused to EpCAM transmembrane and intracellular regions) (human) (UniProt Q9NYJ7); assay: FACS, CHO-K1 hDLL3 cells, 0.16 nM antibody
human DLL3 protein expressed on CHO-K1 recombinant cells (human DLL3 extracellular segment fused to EpCAM transmembrane and intracellular regions) (human), sequence (Q9NYJ7 other isoform, or with tags, fused parts or gaps limits assumed): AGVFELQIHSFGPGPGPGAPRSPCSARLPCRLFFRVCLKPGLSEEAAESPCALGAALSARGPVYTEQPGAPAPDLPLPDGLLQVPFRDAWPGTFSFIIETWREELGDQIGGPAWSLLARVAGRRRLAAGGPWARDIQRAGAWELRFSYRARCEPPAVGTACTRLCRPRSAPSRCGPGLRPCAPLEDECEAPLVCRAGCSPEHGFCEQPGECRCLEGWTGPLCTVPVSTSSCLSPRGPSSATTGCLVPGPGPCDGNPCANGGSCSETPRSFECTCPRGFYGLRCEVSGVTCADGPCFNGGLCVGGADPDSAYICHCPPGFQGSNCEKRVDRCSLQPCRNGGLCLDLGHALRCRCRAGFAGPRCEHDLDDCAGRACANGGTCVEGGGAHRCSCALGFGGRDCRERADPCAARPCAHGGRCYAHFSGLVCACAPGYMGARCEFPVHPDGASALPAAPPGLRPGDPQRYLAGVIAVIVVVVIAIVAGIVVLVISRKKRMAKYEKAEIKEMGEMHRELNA

[4] = target: DLL3 endogenously expressed on NCI-H82 cells (UniProt Q9NYJ7); assay: FACS on NCI-H82 cells; antibody 0.0064 nM
[5] = target: mouse DLL3 on CHO-K1-mDLL3 cells (mouse) (UniProt O88516); assay: FACS, CHO-K1-mDLL3 cells, 0.0064 nM antibody
[6] = target: monkey DLL3 on CHO-K1-cyno DLL3 cells (cynomolgus monkey); assay: FACS, CHO-K1-cyno DLL3 cells, 0.032 nM antibody
monkey DLL3 on CHO-K1-cyno DLL3 cells (cynomolgus monkey), sequence (chain, as listed by the source limits assumed): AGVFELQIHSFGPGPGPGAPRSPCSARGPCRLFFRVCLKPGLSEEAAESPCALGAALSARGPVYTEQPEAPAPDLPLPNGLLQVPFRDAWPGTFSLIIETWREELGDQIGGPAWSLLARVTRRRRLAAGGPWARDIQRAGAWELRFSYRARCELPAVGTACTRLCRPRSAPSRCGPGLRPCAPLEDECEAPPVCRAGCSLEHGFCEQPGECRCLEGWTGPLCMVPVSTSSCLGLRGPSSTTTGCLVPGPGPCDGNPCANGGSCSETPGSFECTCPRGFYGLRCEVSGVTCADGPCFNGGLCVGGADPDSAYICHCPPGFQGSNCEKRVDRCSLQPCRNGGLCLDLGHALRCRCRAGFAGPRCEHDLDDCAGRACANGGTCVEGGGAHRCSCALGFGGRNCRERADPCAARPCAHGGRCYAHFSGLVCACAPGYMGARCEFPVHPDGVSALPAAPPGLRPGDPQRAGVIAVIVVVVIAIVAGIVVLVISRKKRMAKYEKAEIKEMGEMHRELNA

[7] = target: monkey DLL3 on CHO-K1-cyno DLL3 cells (cynomolgus monkey); assay: FACS, CHO-K1-cyno DLL3 cells, 0.0064 nM antibody
[8] = target: human delta-like ligand 3 (DLL3) on SHP77 cells (human) (UniProt Q9NYJ7); assay: FACS on SHP77 cells
human delta-like ligand 3 (DLL3) on SHP77 cells (human), sequence (Q9NYJ7 27-618, stated change not applied): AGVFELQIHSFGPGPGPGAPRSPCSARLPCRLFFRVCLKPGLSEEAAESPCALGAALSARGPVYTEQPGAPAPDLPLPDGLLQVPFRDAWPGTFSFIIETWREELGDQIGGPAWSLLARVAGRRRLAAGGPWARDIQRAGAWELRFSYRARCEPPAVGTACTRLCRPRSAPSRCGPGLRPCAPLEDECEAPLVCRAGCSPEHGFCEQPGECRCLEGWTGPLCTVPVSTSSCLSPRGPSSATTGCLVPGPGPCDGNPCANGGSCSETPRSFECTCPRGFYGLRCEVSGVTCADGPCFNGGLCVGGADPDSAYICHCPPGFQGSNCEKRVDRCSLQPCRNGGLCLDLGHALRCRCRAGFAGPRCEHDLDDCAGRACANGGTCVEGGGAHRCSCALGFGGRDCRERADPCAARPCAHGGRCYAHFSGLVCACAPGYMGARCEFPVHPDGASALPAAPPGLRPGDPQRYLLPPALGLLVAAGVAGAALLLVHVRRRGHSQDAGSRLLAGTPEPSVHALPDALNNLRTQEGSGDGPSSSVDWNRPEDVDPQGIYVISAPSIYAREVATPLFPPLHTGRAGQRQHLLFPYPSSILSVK

[9] = target: mouse DLL3 on CHO-K1-mDLL3 cells (mouse) (UniProt O88516); assay: FACS, CHO-K1-mDLL3 cells, 0.00128 nM antibody
[10] = target: DLL3 endogenously expressed on NCI-H82 cells (UniProt Q9NYJ7); assay: FACS on NCI-H82 cells; antibody 0.032 nM
[11] = target: human DLL3 protein expressed on CHO-K1 recombinant cells (human DLL3 extracellular segment fused to EpCAM transmembrane and intracellular regions) (human) (UniProt Q9NYJ7); assay: FACS, CHO-K1 hDLL3 cells, 4 nM antibody
[12] = target: human DLL3 protein expressed on CHO-K1 recombinant cells (human DLL3 extracellular segment fused to EpCAM transmembrane and intracellular regions) (human) (UniProt Q9NYJ7); assay: FACS, CHO-K1 hDLL3 cells, 0.032 nM antibody
[13] = target: human DLL4 protein (Acro, Cat. No. DL4-H5227) (human) (UniProt Q9NR61); assay: ELISA, coated hDLL4; maximum over 0.1, 1, 10, 100 nM antibody
human DLL4 protein (Acro, Cat. No. DL4-H5227) (human), sequence (Q9NR61 27-524 limits assumed): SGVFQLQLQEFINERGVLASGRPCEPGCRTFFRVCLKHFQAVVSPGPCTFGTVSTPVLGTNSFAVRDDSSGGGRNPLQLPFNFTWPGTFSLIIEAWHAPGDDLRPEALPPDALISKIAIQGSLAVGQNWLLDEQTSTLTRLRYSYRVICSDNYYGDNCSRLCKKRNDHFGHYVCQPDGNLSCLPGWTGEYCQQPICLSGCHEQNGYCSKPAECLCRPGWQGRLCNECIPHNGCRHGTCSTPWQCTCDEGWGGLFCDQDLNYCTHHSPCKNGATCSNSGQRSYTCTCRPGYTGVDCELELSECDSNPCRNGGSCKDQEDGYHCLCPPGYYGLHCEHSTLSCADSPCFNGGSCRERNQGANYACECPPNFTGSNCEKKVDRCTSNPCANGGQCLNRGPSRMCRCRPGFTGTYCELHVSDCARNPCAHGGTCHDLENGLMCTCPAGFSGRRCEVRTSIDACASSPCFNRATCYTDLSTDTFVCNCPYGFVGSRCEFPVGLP

[14] = target: DLL3 endogenously expressed on NCI-H82 cells (UniProt Q9NYJ7); assay: FACS on NCI-H82 cells; antibody 0.00128 nM
[15] = target: DLL3 endogenously expressed on NCI-H82 cells (UniProt Q9NYJ7); assay: FACS on NCI-H82 cells; antibody 4 nM
[16] = target: monkey DLL3 on CHO-K1-cyno DLL3 cells (cynomolgus monkey); assay: FACS, CHO-K1-cyno DLL3 cells, 20 nM antibody
[17] = target: monkey DLL3 on CHO-K1-cyno DLL3 cells (cynomolgus monkey); assay: FACS, CHO-K1-cyno DLL3 cells, 0.16 nM antibody
[18] = target: DLL3 endogenously expressed on NCI-H82 cells (UniProt Q9NYJ7); assay: FACS on NCI-H82 cells; antibody 0.16 nM
[19] = target: human DLL3 protein expressed on CHO-K1 recombinant cells (human DLL3 extracellular segment fused to EpCAM transmembrane and intracellular regions) (human) (UniProt Q9NYJ7); assay: FACS, CHO-K1 hDLL3 cells, 20 nM antibody
[20] = target: human DLL3 protein (extracellular segment, His tag) (human) (UniProt Q9NYJ7); assay: SPR (Biacore 8K), antibody captured on Protein A chip, DLL3 antigen in solution, 1:1 Langmuir fit
human DLL3 protein (extracellular segment, His tag) (human), sequence (Q9NYJ7 27-492): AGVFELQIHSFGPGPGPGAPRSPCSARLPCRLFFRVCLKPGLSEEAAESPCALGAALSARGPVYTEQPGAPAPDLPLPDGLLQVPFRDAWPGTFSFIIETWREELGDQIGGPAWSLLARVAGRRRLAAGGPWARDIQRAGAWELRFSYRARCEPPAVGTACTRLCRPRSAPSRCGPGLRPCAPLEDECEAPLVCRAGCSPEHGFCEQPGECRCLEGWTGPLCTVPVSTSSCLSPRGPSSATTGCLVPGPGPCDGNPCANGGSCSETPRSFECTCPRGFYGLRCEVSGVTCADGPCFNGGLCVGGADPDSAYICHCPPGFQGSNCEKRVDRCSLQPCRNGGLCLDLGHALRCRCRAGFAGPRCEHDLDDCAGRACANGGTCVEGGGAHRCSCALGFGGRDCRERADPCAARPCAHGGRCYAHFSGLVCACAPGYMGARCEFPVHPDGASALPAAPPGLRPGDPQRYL

[21] = target: mouse DLL3 on CHO-K1-mDLL3 cells (mouse) (UniProt O88516); assay: FACS, CHO-K1-mDLL3 cells, 0.8 nM antibody
[22] = target: human DLL3 protein expressed on CHO-K1 recombinant cells (human DLL3 extracellular segment fused to EpCAM transmembrane and intracellular regions) (human) (UniProt Q9NYJ7); assay: FACS, CHO-K1 hDLL3 cells, 100 nM antibody
[23] = target: mouse DLL3 on CHO-K1-mDLL3 cells (mouse) (UniProt O88516); assay: FACS, CHO-K1-mDLL3 cells, 0.16 nM antibody
[24] = target: human DLL3 protein expressed on CHO-K1 recombinant cells (human DLL3 extracellular segment fused to EpCAM transmembrane and intracellular regions) (human) (UniProt Q9NYJ7); assay: FACS, CHO-K1 hDLL3 cells, 0.00128 nM antibody
[25] = target: DLL3 endogenously expressed on NCI-H82 cells (UniProt Q9NYJ7); assay: FACS on NCI-H82 cells; antibody 20 nM
[26] = target: monkey DLL3 on CHO-K1-cyno DLL3 cells (cynomolgus monkey); assay: FACS, CHO-K1-cyno DLL3 cells, 100 nM antibody
[27] = target: mouse DLL3 on CHO-K1-mDLL3 cells (mouse) (UniProt O88516); assay: FACS, CHO-K1-mDLL3 cells, 20 nM antibody
[28] = target: mouse DLL3 on CHO-K1-mDLL3 cells (mouse) (UniProt O88516); assay: FACS, CHO-K1-mDLL3 cells, 4 nM antibody
[29] = target: human DLL3 protein expressed on CHO-K1 recombinant cells (human DLL3 extracellular segment fused to EpCAM transmembrane and intracellular regions) (human) (UniProt Q9NYJ7); assay: FACS, CHO-K1 hDLL3 cells, 0.8 nM antibody
[30] = target: monkey DLL3 on CHO-K1-cyno DLL3 cells (cynomolgus monkey); assay: FACS, CHO-K1-cyno DLL3 cells, 0.8 nM antibody
[31] = target: mouse DLL3 on CHO-K1-mDLL3 cells (mouse) (UniProt O88516); assay: FACS, CHO-K1-mDLL3 cells, 0.032 nM antibody
[32] = target: monkey DLL3 on CHO-K1-cyno DLL3 cells (cynomolgus monkey); assay: FACS, CHO-K1-cyno DLL3 cells, 4 nM antibody
[33] = target: monkey DLL3 on CHO-K1-cyno DLL3 cells (cynomolgus monkey); assay: FACS, CHO-K1-cyno DLL3 cells, 0.00128 nM antibody
[34] = target: DLL3 endogenously expressed on NCI-H82 cells (UniProt Q9NYJ7); assay: FACS on NCI-H82 cells; antibody 0.8 nM
[35] = target: human DLL3 protein expressed on CHO-K1 recombinant cells (human DLL3 extracellular segment fused to EpCAM transmembrane and intracellular regions) (human) (UniProt Q9NYJ7); assay: FACS, CHO-K1 hDLL3 cells, 0.0064 nM antibody
[36] = target: human DLL1 protein (Acro, Cat. No. DL1-H52H8) (human) (UniProt O00548); assay: ELISA, coated hDLL1; maximum over 0.1, 1, 10, 100 nM antibody
human DLL1 protein (Acro, Cat. No. DL1-H52H8) (human), sequence (O00548 18-540 limits assumed): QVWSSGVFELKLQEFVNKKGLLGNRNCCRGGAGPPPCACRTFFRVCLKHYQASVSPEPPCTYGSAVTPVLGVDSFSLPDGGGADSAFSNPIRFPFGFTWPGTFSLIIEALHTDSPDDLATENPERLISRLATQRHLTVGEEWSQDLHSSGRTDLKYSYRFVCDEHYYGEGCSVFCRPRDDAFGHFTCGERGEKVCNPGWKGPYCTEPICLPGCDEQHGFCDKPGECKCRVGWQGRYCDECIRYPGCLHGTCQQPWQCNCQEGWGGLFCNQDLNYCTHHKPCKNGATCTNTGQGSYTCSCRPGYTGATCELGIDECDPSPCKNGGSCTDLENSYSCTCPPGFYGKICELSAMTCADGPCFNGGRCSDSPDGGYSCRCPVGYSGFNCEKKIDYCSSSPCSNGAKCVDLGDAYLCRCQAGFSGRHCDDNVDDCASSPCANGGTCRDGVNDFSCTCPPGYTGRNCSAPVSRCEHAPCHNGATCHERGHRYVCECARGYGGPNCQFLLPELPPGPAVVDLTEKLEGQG

DLL3 endogenously expressed on NCI-H82 cells, sequence (Q9NYJ7 27-618): as the sequence (Q9NYJ7 27-618, stated change not applied) above
mouse DLL3 on CHO-K1-mDLL3 cells (mouse), sequence (O88516 other isoform, or with tags, fused parts or gaps limits assumed): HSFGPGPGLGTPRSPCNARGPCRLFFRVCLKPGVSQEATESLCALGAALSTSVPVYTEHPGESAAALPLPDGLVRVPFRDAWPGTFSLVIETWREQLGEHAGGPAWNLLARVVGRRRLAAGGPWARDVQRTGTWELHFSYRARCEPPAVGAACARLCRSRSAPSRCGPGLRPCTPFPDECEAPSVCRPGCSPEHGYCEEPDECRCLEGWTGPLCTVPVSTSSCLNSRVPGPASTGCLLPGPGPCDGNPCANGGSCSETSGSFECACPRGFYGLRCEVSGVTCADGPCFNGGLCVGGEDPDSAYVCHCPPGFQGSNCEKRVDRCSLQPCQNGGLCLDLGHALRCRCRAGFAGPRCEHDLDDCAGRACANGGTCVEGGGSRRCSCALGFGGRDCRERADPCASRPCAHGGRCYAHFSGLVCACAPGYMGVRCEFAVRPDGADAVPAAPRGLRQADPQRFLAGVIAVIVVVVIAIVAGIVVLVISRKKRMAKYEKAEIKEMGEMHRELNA

B1: Hab006VL1VH4-hFc (scFv, part only; not given: VL-VH linker and human IgG1 Fc, V domains shown, not shown: another chain or arm of the molecule; a dimerising Fc or GST; small tags and cut ends)
VL: DIQMTQSPSSLSASVGDRVTITCRATKSISKYLAWYQQKPGKAPKLLIFSGSTLQSGVPSRFSGSGSGTDFTLTISSLQPEDFATYYCQQHHEYPYTFGGGTKVEIK
VH: EVQLVQSGAEVKKPGASVKVSCKASGYTFTSYWMHWVRQAPGQRLEWMGVIDPSDSLANYNQEFKGRVTLTVDTSSSTAYMELSSLRSEDTAVYYCARDSTVVAPMDYWGQGTTVTVSS
B1 gave an MFI [1] of 626, an MFI [2] of 589 MFI and an MFI [3] of 3100 MFI. It also gave an MFI [4] of 155, an MFI [5] of 187 MFI and an MFI [6] of 1730 MFI. For the same binder, the MFI [7] was 1380 MFI, the MFI at 0.00128 nM [8] was 208 MFI and the MFI at 0.0064 nM [8] was 275 MFI. It also gave an MFI at 0.032 nM [8] of 458 MFI, an MFI at 0.16 nM [8] of 938 MFI and an MFI at 0.8 nM [8] of 1310 MFI. It also gave an MFI at 4 nM [8] of 1410 MFI, an MFI at 20 nM [8] of 1600 MFI and an MFI at 100 nM [8] of 1890 MFI. The MFI [9] was 126 MFI, the MFI [10] was 242 and the MFI [11] was 12700 MFI. The MFI [12] was 1050 MFI, the Emax of OD450 nm binding value [13] was 0.15 OD450 nm and the MFI [14] was 126. The MFI [15] was 291, the MFI [16] was 9060 MFI and the MFI [17] was 5000 MFI. It also gave an MFI [18] of 367, an MFI [19] of 13600 MFI and a Kd [20] of 0.568 nM. For the same binder, the koff [20] was 0.000221 s⁻¹, the kon [20] was 389000 M⁻¹ s⁻¹ and the MFI [21] was 529 MFI. For the same binder, the MFI [22] was 14300 MFI, the MFI [23] was 406 MFI and the MFI [24] was 419 MFI. For the same binder, the MFI [25] was 519, the MFI [26] was 9720 MFI and the MFI [27] was 627 MFI. The MFI [28] was 615 MFI, the MFI [29] was 7270 MFI and the MFI [30] was 7840 MFI. It also gave an MFI [31] of 246 MFI, an MFI [32] of 8590 MFI and an MFI [33] of 750 MFI. The MFI [34] was 412, the MFI [35] was 716 MFI and the Emax of OD450 nm binding value [36] was 0.07 OD450 nm.

B2: Hab006VL4VH1-hFc (scFv, part only; not given: scFv linker and human IgG1 Fc, V domains shown, not shown: another chain or arm of the molecule; a dimerising Fc or GST; small tags and cut ends)
VL: DIVMTQSPDSLAVSLGERATINCRATKSISKYLAWYQQKPGQTNKLLIFSGSTLQSGVPDRFSGSGSGTDFTLTISSLQAEDVAVYYCQQHHEYPYTFGGGTKVEIK
VH: EVQLVQSGAEVKKPGASVKVSCKASGYTFTSYWMHWVRQAPGQRLEWMGVIDPSDSLANYNQEFKGRVTITVDTSASTAYMELSSLRSEDTAVYYCARDSTVVAPMDYWGQGTTVTVSS
Work on B2 yielded an MFI [1] of 596, an MFI [2] of 554 MFI and an MFI [3] of 4120 MFI. The MFI [4] was 157, the MFI [5] was 110 MFI and the MFI [6] was 1110 MFI. It also gave an MFI [7] of 424 MFI, an MFI at 0.00128 nM [8] of 215 MFI and an MFI at 0.0064 nM [8] of 305 MFI. For the same binder, the MFI at 0.032 nM [8] was 554 MFI, the MFI at 0.16 nM [8] was 1060 MFI and the MFI at 0.8 nM [8] was 1410 MFI. It also gave an MFI at 4 nM [8] of 1490 MFI, an MFI at 20 nM [8] of 1660 MFI and an MFI at 100 nM [8] of 1900 MFI. For the same binder, the MFI [9] was 98 MFI, the MFI [10] was 252 and the MFI [11] was 13600 MFI. The MFI [12] was 1130 MFI, the Emax of OD450 nm binding value [13] was 0.08 OD450 nm and the MFI [14] was 123. For the same binder, the MFI [15] was 454, the MFI [16] was 9050 MFI and the MFI [17] was 3350 MFI. The MFI [18] was 397, the MFI [19] was 14500 MFI and the Kd [20] was 0.286 nM. The koff [20] was 0.000119 s⁻¹, the kon [20] was 415000 M⁻¹ s⁻¹ and the MFI [21] was 404 MFI. The MFI [22] was 15200 MFI, the MFI [23] was 278 MFI and the MFI [24] was 227 MFI. For the same binder, the MFI [25] was 504, the MFI [26] was 10500 MFI and the MFI [27] was 523 MFI. It also gave an MFI [28] of 485 MFI, an MFI [29] of 11300 MFI and an MFI [30] of 7500 MFI. It also gave an MFI [31] of 165 MFI, an MFI [32] of 8440 MFI and an MFI [33] of 239 MFI. The MFI [34] was 434, the MFI [35] was 411 MFI and the Emax of OD450 nm binding value [36] was 0.07 OD450 nm.
